Assay results as given in publication PMC4005678.

Biological target: Klf4 ZnF1-3 DNA-binding domain (mouse) (UniProt Q60793)
Assay: fluorescence polarization
Conditions: FP: 20 mM Tris-HCl pH 7.5, 150 mM NaCl, 5% (v/v) glycerol, 0.5 mM TCEP, ~22 C, probe 10 nM (WT) or 1 nM (E446A)

Sequence of Klf4 ZnF1-3 DNA-binding domain (mouse) (Q60793 396-483): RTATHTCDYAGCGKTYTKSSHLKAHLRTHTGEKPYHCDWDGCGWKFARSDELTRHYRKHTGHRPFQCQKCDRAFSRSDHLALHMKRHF

For “GAGGCGTGGC / TTGCCACGCCTC [Klf4 site C/C]”, the binding signal (fold weaker than M/M) was 1.5.

In the case of “GAGGCGTGGC / TTGCCACGCCTC [Klf4 site 5hmC/M]”, the binding signal (fold weaker than M/M) (5hmC at position 5 of strand 1, 5mC at position 7 of strand 2) is reported as 2.

“GAGGCGTGGC / TTGCCACGCCTC [Klf4 site C/M]” gave a binding signal (fold weaker than M/M) (repeat series, C at position 5 of strand 1, 5mC at position 7 of strand 2) of 1.5 and a binding signal (fold Kd vs M/M) (text: difference only ~40%, C at position 5 of strand 1, 5mC at position 7 of strand 2) of 1.4.

“GAGGCGTGGC / TTGCCACGCCTC [Klf4 site 5fC/M]” showed a binding signal (fold weaker than M/M) (5fC at position 5 of strand 1, 5mC at position 7 of strand 2) of 3.

“GAGGCGTGGC / TTGCCACGCCTC [Klf4 site 5caC/M]” showed a binding signal (fold weaker than M/M) (5caC at position 5 of strand 1, 5mC at position 7 of strand 2) of 6.
